Consider one molecule from paper PMC4737156, “Taking a molecular motor for a spin: helicase mechanism studied by spin labeling and PELDOR”.

In data set [1] the target is T1, PcrA V344C/Q506C-R1 (2A-2B) (Bacillus stearothermophilus, UniProt P56255 1-724, V344C;Q506C).
T1 sequence: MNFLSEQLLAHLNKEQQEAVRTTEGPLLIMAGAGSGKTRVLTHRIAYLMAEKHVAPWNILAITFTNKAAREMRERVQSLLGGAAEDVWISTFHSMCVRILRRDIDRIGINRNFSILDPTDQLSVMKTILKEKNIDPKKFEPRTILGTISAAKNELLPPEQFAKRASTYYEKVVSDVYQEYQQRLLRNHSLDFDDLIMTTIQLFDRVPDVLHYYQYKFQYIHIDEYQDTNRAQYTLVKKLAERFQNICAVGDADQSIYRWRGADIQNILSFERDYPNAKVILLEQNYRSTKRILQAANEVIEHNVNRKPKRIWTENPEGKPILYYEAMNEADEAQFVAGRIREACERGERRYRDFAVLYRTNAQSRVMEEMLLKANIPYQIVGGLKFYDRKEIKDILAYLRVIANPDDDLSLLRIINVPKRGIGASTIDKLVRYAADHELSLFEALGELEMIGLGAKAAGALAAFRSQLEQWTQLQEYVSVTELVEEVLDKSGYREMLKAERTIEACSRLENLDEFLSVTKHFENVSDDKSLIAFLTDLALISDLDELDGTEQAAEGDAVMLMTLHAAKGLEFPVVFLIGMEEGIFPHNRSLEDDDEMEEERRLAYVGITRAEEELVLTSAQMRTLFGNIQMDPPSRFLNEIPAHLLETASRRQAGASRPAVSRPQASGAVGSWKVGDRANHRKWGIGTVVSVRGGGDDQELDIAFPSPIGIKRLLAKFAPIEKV
The experiment in a line: PELDOR (DEER) EPR; no nucleotide; distances 37.3 and 44.1 A (1:0.7); PELDOR in D2O buffer (composition, pH not given in material): PcrA 70 uM, DNA 150 uM, nucleotide 10-fold excess, 1 mM MgCl2, 5% EG-d6; XPD 40-50 uM, DNA about 2x, nucleotide/MgCl2 1 mM. The conditions noted are these: protein: recombinant; tags: none stated; hairpin, 11 bp duplex, 3' overhang 10 nt.

Data set [2] deals with T2, PcrA E74C/Q506C-R1 (1A-2B) (Bacillus stearothermophilus, UniProt P56255 1-724, E74C;Q506C).
T2 sequence: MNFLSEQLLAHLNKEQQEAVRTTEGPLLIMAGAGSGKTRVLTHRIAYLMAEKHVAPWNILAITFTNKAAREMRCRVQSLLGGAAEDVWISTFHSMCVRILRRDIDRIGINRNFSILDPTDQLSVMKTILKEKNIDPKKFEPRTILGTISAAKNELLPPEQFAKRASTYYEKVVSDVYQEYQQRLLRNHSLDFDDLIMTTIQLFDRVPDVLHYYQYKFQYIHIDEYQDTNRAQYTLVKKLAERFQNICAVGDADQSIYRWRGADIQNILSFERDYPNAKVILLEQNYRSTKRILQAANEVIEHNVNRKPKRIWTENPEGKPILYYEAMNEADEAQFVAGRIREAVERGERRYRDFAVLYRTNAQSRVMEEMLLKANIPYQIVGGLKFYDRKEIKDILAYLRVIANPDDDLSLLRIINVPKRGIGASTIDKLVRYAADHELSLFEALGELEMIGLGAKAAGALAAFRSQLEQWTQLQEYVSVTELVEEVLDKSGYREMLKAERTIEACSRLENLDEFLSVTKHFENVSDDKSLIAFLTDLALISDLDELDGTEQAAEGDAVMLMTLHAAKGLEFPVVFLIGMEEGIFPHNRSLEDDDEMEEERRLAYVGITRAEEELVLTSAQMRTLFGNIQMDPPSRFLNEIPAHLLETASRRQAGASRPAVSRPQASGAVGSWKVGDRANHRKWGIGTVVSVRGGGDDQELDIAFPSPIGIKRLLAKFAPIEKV
Nature of the data set: PELDOR (DEER) EPR; no nucleotide; distances 35 and 45 A (0.5:1); PELDOR in D2O buffer (composition, pH not given in material): PcrA 70 uM, DNA 150 uM, nucleotide 10-fold excess, 1 mM MgCl2, 5% EG-d6; XPD 40-50 uM, DNA about 2x, nucleotide/MgCl2 1 mM. The conditions noted are these: protein: recombinant; tags: none stated; hairpin, 11 bp duplex, 3' overhang 10 nt.

As for CGAGCACTGCTTTAGCAGTGCTCGTTTTTTTTTT (structured_DNA) [hairpin with 3'-(dT)10 overhang], the binding result in data set [1] and in data set [2] was “binds” each time.
